According to the DeepSol protein solubility set:

Experiment: soluble on expression in E. coli; label from the status in PepcDB or PDB records

For “MGHHHHHHGGHMSLPNFFTPEFGPLRGVRVITTGSIIAGPTAGTILADLGAEVIHVERPKVGDTLRVVPPYFEADGKRIGGEFVCVTRNKLSVALDIKSEEGRKIFYELLKHADIFIENLVWLEERYGITDKDMLEANPRLVIVHVSGFGRSEFGGEDEKCGRGSYDIISQAYSGWCKLAAPPGMEVHRLPLYIGDYVTALFGVIGALSAYVYAKETGRGQVVDVAQFEAIARVIEMYYTMYHNLGINREGEGLRVFNTQPYGLYRVKDGWIAIGAIGPGLYQRFIQALAKATGINPADYPYEECAASPEAVNSEKGRELDRIFNEYLMSHTKEEVEKLFNAFRVPCSRVSTPEDVVRDRHWIERGDIIEVLDETTGRLVKQVGIVPKFSETPGRIWRGPPKLGSDTKKVLKGLLNLSDEQIDELKAKGVVDFEGGS”, which “soluble on expression in E. coli” value is on record?
The value was “soluble”.

With “SETRGPQGAANPMDSSRSLGDLGPFPREVGRGAPLAPGARNPATAGASRSQGGGHEDRTADRALGPRAGEELDRESWVREKVLFLLHPERWLGTRGDPAREEVAGAEDLPHAGGEDHGEEPNYPSVFQREKRISGRRVAPPRDAADPPKYVLVRVEDYQVTQEVLQTSWAKGRMTTRTEEHFVTALTFRSSREGQPGERWGPAESRALQARTGASRVHAAGRRVSPSPGTWLEEIKL” as the sequence, how does the “soluble on expression in E. coli” value read?
Its value is “soluble”.

Which “soluble on expression in E. coli” value does the source give for “GSMTEADVNPKAYPLADAHLTKKLLDLVQQSCNYKQLRKGANEATKTLNRGISEFIVMAADAEPLEIILHLPLLCEDKNVPYVFVRSKQALGRACGVSRPVIACSVTIKEGSQLKQQIQSIQQSIERLLV” here?
Its value is “soluble”.

Which “soluble on expression in E. coli” value does the source give for “MGSDKIHHHHHHMNEQWFLLGDIHGSAQPVHYFYQKNKERLSLDSSENFMILLGDVGANFALTGQRDHKFKSELSKLPFTFICLRGNHEARVKTVMDKNPDGWETISKYDGSIFVEKEFPYIEYLADGPAVYNFKSYKTLSLPGAYSVDKYYRQARHLTWYKDEQLNEKEMELGRKLCRNEAPFDLVLSHTCPYLYEPTDLFLAGLDQSTVDSTMERYLGEIEFNLDYKRWAFGHFHADRLYPWADGRQMLMLFNENVVNLDKFMNMTEKQSFKDIIA” here?
The value was “not soluble”.

Which “soluble on expression in E. coli” value does the source give for “MGSDKIHHHHHHMDSSIDLSLAYADSGVGEVLDQLDCELIGLKPVKTRIREIAALLLVDRARKDLDLASTMPSLHMSFTGRPGTGKTTVAIRISQILHRLGYLRKGHVVTVTRDDLVGQYVGHTAPKTREMIKRAQGGVLFIDEAYYLYKPGNERDYGAEAIEILLQDMESRRGDFVVIFAGYKDKMDAFYQSNPGLSSRVAHHIDFPDYSNRELLAIAQLFLVQQNYYFGDEAEGIFEDYIERRRQLPFFANARSIRNALDRTRLRQANRLFARMGEPLSRDELMTIEPADILASRVFQGEVEGRHPTQPLMESSE” here?
The value was “not soluble”.

With “MGSDKIHHHHHHMFDLNDLFYFVQVVECRGFAPASRKLGIPKSKLSRRIAGLEERLGVSLIHRSTRKFAVTESGRDYYGHCVAMLVEADAAEEAIQRSKSEPQGKVVISCPPAMAAMGINEAIAGFMAAHPKVQVHIESTNRRVDPLIENIDIALRVRFPPLEDDGLVVKTLGHSAQRLVAHPDLAALLPANASFEALARLPSLDVTSSTPEHRWLLENGPGHYVEVRHAPRLVSSDLDAILQAALQGVGVAQLPEILVREALQQGRMVELFDAHRPKCGILHAVFVSRRGLLPAVRGLLDAFESSFTELTHNPESLYCSLHRTNSRIQGD” as the sequence, how does the “soluble on expression in E. coli” value read?
The value was “not soluble”.

With “MGSDKIHHHHHHMYMEKRQFIKDIAVNGDVNGLFLIASANQMQAKNGPFWRLEICDASGTLNAKIWSPLSASFETLTPGDVVHLEGRAGLFRDRIDISVDRMRVLAPYELEALDMGQFLVSSERDPAEMLTELLELCREVFTHRPWRKFVTGVLRNEELAEALKAAPAAKSVHHAYRGGLLEHILSVSGLCMRIADHYPEIDRQVLLAGAIFHDIGKAWELSGGLVNDYTDEGRLLGHIHIGLEQLEPFLRRSGLEHELAVHFKHLILSHHGEYEFGSPRRPKTREAMVLHYADNLDAKMAQLNSLFKGFEDGETGWTPFQPTLQRFLYNPVRTPETETVRRKRPETPREEQCSLLSKG” as the sequence, how does the “soluble on expression in E. coli” value read?
The value was “not soluble”.

For “MSNDGDLNIDNLITRLLEVRGCRPGKPVTMSEAEIRALCHKSREIFLSQPILLELEAPLKICGDIHGQYNDLLRLFEYGGFPPEANYLFLGDYVDRGKQSLETICLLLAYKVKYPENFFLLRGNHECASINRIYGFYDECKRRFSIKLWKTFTDCFNCLPIAALIDEKIFCCHGGLSPDLQNMEQIRRVMRPTDVPDTGLLCDLLWSDPDKDVTGWGENDRGVSFTFGPDVVAKFLNRHDLDLICRAHQVVEDGYEFFAKRQLVTLFSAPNYCGEFDNAGGMMSVDETLMCSFQILKPSEKKAKYQYQGMNSGRPAVGGGRPGTTAGKK”, which “soluble on expression in E. coli” value is on record?
The value was “not soluble”.

Which “soluble on expression in E. coli” value does the source give for “MSLSNHSSDIEVGHSMNLTNHFLVAMPSMKDPYFKRSVIYICEHNQDGAMGLMINAPIDITVGGMLKQVDIEPAYPQSHQENLKKPVFNGGPVSEDRGFILHRPRDHYESSMKMTDDIAVTTSKDILTVLGTEAEPEGYIVALGYSGWSAGQLEVELTENSWLTIEADPELIFNTPVHEKWQKAIQKLGISPAQLSSDAGHEGGSHHHHHH” here?
Its value is “soluble”.

For “MSLRKKGPVVLGKFWIYWCEKCNVPLIGDTCSIHGKDSVFKITLTPPGDVRFAFPKDIELIREVFREHYGVDLGELLEGKIVLLNKIPGEDDSYEIIFDGFIFGIISFNPRKLKWKPGLKEEGAKLLWEKFGKSLKKWVIIDRGAVEPVKNGANVLPVGVIEAEESIRRGDEVIVVSEDGEVVGVGIAKKDYNELINPQARGTGVKMKRKSKGSGKRLNGRKATIKDVIKANSAELEKKVREARNFMRSVAEKFKLPVAVAFSGGKDSLAVLGLAMEEFNNFTVFFNNTGIEFPETVEYVMKLREKYKNLNFIIADAGDAFWRAINIFSPPGMDYRWCCKVTKLGPITLAIRKHFPNGVLMFVGQRKFESFKRYKQGRVWKNKWVPNEIGAAPIFHWTALEVWLYIFSRGLEYNPLYEKGIDRIGCFLCPSQSLAEIQRLKEEKPELWEKWYRELEKWRKRLGLPREWIEYGFWRWRRVGRREKVLAKELGVEIPEERSWEVIKFDIKEEEGKYIVRPSTKLNLTRIREVAPILGNVEEGDNYLKAGENIFDKDKNVIISPSLEEAYSSVLLLKRAYECVGCGVCITSCPEEAIELDEKRKKIVVSLEKCTHCRECMNVCPLVVIKGVDNILEGHHHHHH”, which “soluble on expression in E. coli” value is on record?
Its value is “not soluble”.

Which “soluble on expression in E. coli” value does the source give for “MIDQFMSMSELIDHTEEHKDWQILYNERVAKSLITAVHGGAIERGTSEIAQLISEIGGYSFYTFKGIRKNKNHELHVTSKHFDEPILNELVPTHEVVVSLHGCMGNDVAVYIGGKDLELSYEITQQLQKIGIVVKPAPAHIAGMQTENFVNKGKRDAGVQLELTVALRKQCFKNNKYNLHDRENRENWSQLMFSFSTAIANALKILNDLEHHHHHH” here?
Its value is “not soluble”.

With “MGKVLVIYDTRTGNTKKMAELVAEGARSLEGTEVRLKHVDEATKEDVLWADGLAVGSPTNMGLVSWKMKRFFDDVLGDLWGEIDGKIACAFSSSGGWGGGNEVACMSILTMLMNFGFLVFGVTDYVGKKFTLHYGAVVAGEPRSEEEKEACRRLGRRLAEWVAIFVDGRKELLEKIRKDPARFVD” as the sequence, how does the “soluble on expression in E. coli” value read?
The value was “soluble”.

Which “soluble on expression in E. coli” value does the source give for “MDTTTTSSLKSAEKKDTDATPRAHSPEIDVEVIKSDCSTPEKQNGAVGNEQQMNNSTSTRRTDSNKNLSPPPQRLRTSSSTSDGTENLISSLSSWDWVTIDGLKLPAVTRNKERYVAVHMVQLKLLSKFPSDIPRDITRKFTMGSHKMTVTEAWTFNTINAVIRKFDLGCQLFTANDELVKLNDVQMFYWNVKLFNLKRVNGQYETAISSAENNVQLLATAMQLKKQVDSDIQVIFK” here?
Its value is “not soluble”.

With “MKNMNKYENCLLCPRKCGINRSTGQTGVCGVSSEIKVARAALHYWEEPCISGKRGSGAVFFSGCSLHCVFCQNREISDGKAGKVISKERLSDIFMELADKGANNINLVTPGQYIPDIVWAVNDAKSRGMKLPIIYNTSGYENVTELKLLEGIVDVYLPDFKYMDSTLSARYSRAKDYPSVAKQALSEMVRQQPDVVIDDATGLIQKGVIVRQLLLPGHVNDAKAVLKYLYDTYHDHVYISMMSQFTPIALKDYPEINRTVTRREYERLVDYALEIGITNAFIQEGDVAKDSFIPAFDCEGV” as the sequence, how does the “soluble on expression in E. coli” value read?
Its value is “not soluble”.
